T1: HLA-DR DRB1*0701 (human)
T1 chain 1: not shown
T1 chain 2: not shown

T2: HLA-DR DRB1*0401 (human)
T2 chain 1: not shown
T2 chain 2: not shown

T3: HLA-DR DRB1*0405 (human)
T3 chain 1: not shown
T3 chain 2: not shown

T4: HLA-DR DRB1*1302 (human)
T4 chain 1: not shown
T4 chain 2: not shown

T5: HLA-DR DRB1*0404 (human)
T5 chain 1: not shown
T5 chain 2: not shown

T6: HLA-DR DRB5*0101 (human)
T6 chain 1: not shown
T6 chain 2: not shown

T7: HLA-DR DRB1*0101 (human)
T7 chain 1: not shown
T7 chain 2: not shown

The record followed here is patent publication US20100310640A1.

The first assay concerns the target T1, HLA-DR DRB1*0701 (human). The assay can be described thus: radioligand inhibition, purified HLA-DR. Conditions: remark: other sources report otherwise.
TMNMLGGGGSAGRKP [Peptide 9019.0184]: the IC50 was 6.18 µM.
On the same count and under the same terms, under APTISPLNTSYRSGE [CEA.239 peptide 9919.0121] stands 10.6 µM.
On the same count and under the same terms, for ERGPLEHLYSLHIPN [Peptide 9019.0190] the value was 0.018 µM.
The same measure, in the same setting: under GCQVVQGNLELTYLP [Her/neu.52] stands 1.97 µM; under AEVLFRCPPCTPERL [Peptide 9019.0178], 16 µM.

The target in the next assay is T2, HLA-DR DRB1*0401 (human). The assay can be described thus: radioligand inhibition, purified HLA-DR. The conditions noted are these: remark: other sources report otherwise.
On to IEALLESSLRQAQQN [Cyclin D1.251], for which the IC50 was 18 nM.
On the same count and under the same terms, for PERLAACGPPPVAPP [Peptide 9019.0179] the value was 5540 nM; for TMNMLGGGGSAGRKP [Peptide 9019.0184], 791 nM.
On the same count and under the same terms, for EPKKLRPPPARTPCQ [Peptide 9019.0188] the value was 806 nM; for APTISPLNTSYRSGE [CEA.239 peptide 9919.0121], 295 nM; for NDRVLRAMLKAEETC [Cyclin D1.24 peptide 9019.0147], 1960 nM.
The same measure, in the same setting: for GCQVVQGNLELTYLP [Her/neu.52] the value was 2740 nM.
In turn, ICTIDVYMIMVKCWM [Peptide 1622.04] came in with an IC50 of 717 nM.

The target of the next assay is T3, HLA-DR DRB1*0405 (human). The assay is described as follows: radioligand inhibition, purified HLA-DR. The conditions noted are these: remark: other sources report otherwise.
Molecule VCGIQNSVSANRSDP [CEA.570 peptide 9012.0135] gave an IC50 of 1550 nM.
Same read-out and setting: for APTISPLNTSYRSGE [CEA.239 peptide 9919.0121] the value was 5990 nM; for TTPVTGASPGGLREL [Her2/neu.126], 13200 nM; for GVTVWELMTFGAKPY [Peptide 9019.0090], 2110 nM.
Consider ERGPLEHLYSLHIPN [Peptide 9019.0190], for which the IC50 was 110 nM.
On the same count and under the same terms, under ICTIDVYMIMVKCWM [Peptide 1622.04] stands 955 nM.

The next assay addresses T4, HLA-DR DRB1*1302 (human). The assay can be described thus: radioligand inhibition, purified HLA-DR. The conditions noted are these: remark: other sources report otherwise.
For VCGIQNSVSANRSDP [CEA.570 peptide 9012.0135], the IC50 was found to be 0.921 µM.
In turn, DANLLNDRVLRAMLK [Cyclin D1.19 peptide 9019.0146] gave an IC50 of 0.286 µM. Against the preceding molecule, the IC50 is about 3.2-fold lower.
On the same count and under the same terms, for TMNMLGGGGSAGRKP [Peptide 9019.0184] the value was 5.69 µM; for NPQLCYQDTILWKDI [Her2/neu.158], 5.07 µM; for APTISPLNTSYRSGE [CEA.239 peptide 9919.0121], 0.125 µM.
Still for that read-out and setting: for TTPVTGASPGGLREL [Her2/neu.126] the value was 6.05 µM; for GVTVWELMTFGAKPY [Peptide 9019.0090], 8.86 µM; for AEVLFRCPPCTPERL [Peptide 9019.0178], 5.77 µM.

A further assay deals with T5, HLA-DR DRB1*0404 (human). The assay is described as follows: radioligand inhibition, purified HLA-DR. The conditions noted are these: remark: other sources report otherwise.
In turn, VCGIQNSVSANRSDP [CEA.570 peptide 9012.0135] returned an IC50 of 29 nM.
Turning to APTISPLNTSYRSGE [CEA.239 peptide 9919.0121], the IC50 is 40 nM. The IC50 values of the last two molecules are within 1.5-fold of each other.
KELAVFREKVTEQHR [Peptide 9019.0186] yielded an IC50 of 26 nM.
The same measure, in the same setting: for TTPVTGASPGGLREL [Her2/neu.126] the value was 675 nM; for GVTVWELMTFGAKPY [Peptide 9019.0090], 4.1 nM.
On the same count and under the same terms, under ERGPLEHLYSLHIPN [Peptide 9019.0190] stands 29 nM.

In another assay the target is T6, HLA-DR DRB5*0101 (human). The assay is described as follows: radioligand inhibition, purified HLA-DR. Conditions: remark: other sources report otherwise.
For the molecule VCGIQNSVSANRSDP [CEA.570 peptide 9012.0135], the IC50 is 0.036 µM.
Consider TTPVTGASPGGLREL [Her2/neu.126], for which the IC50 worked out at 3 µM.
In the case of ERGPLEHLYSLHIPN [Peptide 9019.0190], the IC50 was 4 µM.

The next assay addresses T7, HLA-DR DRB1*0101 (human). The assay is described as follows: radioligand inhibition, purified HLA-DR. Conditions: remark: other sources report otherwise.
In the case of VCGIQNSVSANRSDP [CEA.570 peptide 9012.0135], the IC50 worked out at 44 nM.
Same read-out and setting: under PEYVNQPDVRPQPPS [Peptide 9019.0100] stands 6160 nM.
The same measure, in the same setting: for IEALLESSLRQAQQN [Cyclin D1.251] the value was 2610 nM.
The same measure, in the same setting: for DANLLNDRVLRAMLK [Cyclin D1.19 peptide 9019.0146] the value was 1460 nM; for PERLAACGPPPVAPP [Peptide 9019.0179], 28 nM; for VAAVQGLNLRSPNNF [Cyclin D1.209], 44 nM.
TMNMLGGGGSAGRKP [Peptide 9019.0184] registered an IC50 of 1020 nM.
Still for that read-out and setting: under NPQLCYQDTILWKDI [Her2/neu.158] stands 3650 nM; under APTISPLNTSYRSGE [CEA.239 peptide 9919.0121], 2430 nM; under KELAVFREKVTEQHR [Peptide 9019.0186], 2040 nM.
As for TTPVTGASPGGLREL [Her2/neu.126], the IC50 came out at 992 nM. Against the preceding molecule, the IC50 is about 2.1-fold lower.
In turn, GVTVWELMTFGAKPY [Peptide 9019.0090] had a 50% inhibitory concentration (IC50) of 40 nM. Compared with the last molecule, the IC50 is about 25-fold lower.
ERGPLEHLYSLHIPN [Peptide 9019.0190] gave an IC50 of 7.7 nM.
Same read-out and setting: for GCQVVQGNLELTYLP [Her/neu.52] the value was 2600 nM.
Same read-out and setting: under AEVLFRCPPCTPERL [Peptide 9019.0178] stands 1280 nM.
